Laboratory results: publication PMC4506539, “Crystallographic structure of a small molecule SIRT1 activator-enzyme complex” (Nature Communications, 2015)

B1: human C-terminal regulatory segment (CTR) peptide of SIRT1 (peptide, UniProt Q96EB6 641-665, looked up)
peptide: QYLFLPPNRYIFHGAEVYSDSEDDV
B2: Ac-p53(W5) (Ac-RHKKAcW-NH2) (peptide)
peptide: Ac-RHKK(Ac)W-NH2
notes: p53-based peptide Ac-RHKKAcW-NH2; also called Trp-5mer; p53-derived peptide substrate; source: synthetic peptide, bought: Biopeptide

Legend:
[1] = target: T1, hSIRT1 catalytic core, residues 229–516 (human, UniProt Q96EB6 229-516); assay: cell-based or functional assay
T1 sequence (looked up): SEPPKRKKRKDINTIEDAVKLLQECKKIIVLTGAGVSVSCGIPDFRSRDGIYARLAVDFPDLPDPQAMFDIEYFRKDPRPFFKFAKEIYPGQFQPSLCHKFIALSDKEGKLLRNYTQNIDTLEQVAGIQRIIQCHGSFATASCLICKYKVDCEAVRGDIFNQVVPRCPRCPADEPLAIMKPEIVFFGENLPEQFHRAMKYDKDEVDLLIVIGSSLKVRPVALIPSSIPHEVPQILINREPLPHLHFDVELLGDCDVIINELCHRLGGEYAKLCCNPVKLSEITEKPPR

[2] = target: T2, full-length human SIRT1 (human, UniProt Q96EB6 1-747); assay: HDX-MS; 0.77 mg/ml full-length SIRT1 ± 3.88 mM Ac-p53(W5) ± 192 μM STAC 1 in 1.9% DMSO, mixed 1:1 with 100 mM phosphate pH read 7.0 in D2O; 0 °C, 15-5,000 s; details: both partners purified
T2 construct: human SIRT1, full length, 747 amino acids; also called hSIRT1; wild-type hSIRT1
T2 sequence (looked up): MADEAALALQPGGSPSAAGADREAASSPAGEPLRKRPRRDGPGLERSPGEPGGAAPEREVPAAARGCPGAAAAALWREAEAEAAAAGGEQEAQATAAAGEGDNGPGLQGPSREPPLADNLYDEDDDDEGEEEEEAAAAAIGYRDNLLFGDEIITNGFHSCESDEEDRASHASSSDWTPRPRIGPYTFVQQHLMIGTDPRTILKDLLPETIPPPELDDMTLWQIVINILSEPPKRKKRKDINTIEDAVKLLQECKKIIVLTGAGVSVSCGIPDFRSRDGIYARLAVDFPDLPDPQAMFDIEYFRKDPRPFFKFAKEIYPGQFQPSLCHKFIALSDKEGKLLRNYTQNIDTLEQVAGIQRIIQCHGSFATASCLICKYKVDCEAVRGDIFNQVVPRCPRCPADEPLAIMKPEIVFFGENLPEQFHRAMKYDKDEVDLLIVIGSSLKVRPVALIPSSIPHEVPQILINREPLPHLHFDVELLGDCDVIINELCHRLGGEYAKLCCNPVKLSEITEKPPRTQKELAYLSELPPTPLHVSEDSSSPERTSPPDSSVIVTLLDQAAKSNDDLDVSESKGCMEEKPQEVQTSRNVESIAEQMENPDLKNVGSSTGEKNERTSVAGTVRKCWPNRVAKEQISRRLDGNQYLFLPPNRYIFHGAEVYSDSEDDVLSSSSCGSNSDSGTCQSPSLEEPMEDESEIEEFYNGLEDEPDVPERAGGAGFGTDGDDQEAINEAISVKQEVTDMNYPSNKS

deacetylase activity of hSIRT1cd after addition of the CTR peptide, relative to full-length hSIRT1 (∼15% without the peptide) [1]	binding result [2]	Binder
80 % of the activity of full-length hSIRT1		B1
	binds	B2
